Laboratory results reported in patent US11491212.

Factor X, P00742, sequence (P00742 whole entry, looked up): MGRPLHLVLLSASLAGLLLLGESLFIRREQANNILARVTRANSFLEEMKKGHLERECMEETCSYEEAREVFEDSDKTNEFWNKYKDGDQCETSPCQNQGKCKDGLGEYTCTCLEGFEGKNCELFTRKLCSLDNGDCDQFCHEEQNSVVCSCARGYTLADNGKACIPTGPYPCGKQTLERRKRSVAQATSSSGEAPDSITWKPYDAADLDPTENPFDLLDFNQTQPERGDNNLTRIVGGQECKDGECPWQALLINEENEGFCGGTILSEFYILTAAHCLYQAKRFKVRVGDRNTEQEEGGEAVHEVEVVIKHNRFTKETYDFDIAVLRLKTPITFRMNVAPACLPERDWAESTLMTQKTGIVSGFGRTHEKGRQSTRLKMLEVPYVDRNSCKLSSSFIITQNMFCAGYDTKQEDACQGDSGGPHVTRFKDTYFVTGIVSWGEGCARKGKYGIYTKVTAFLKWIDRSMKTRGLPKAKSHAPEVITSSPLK
Factor X (FX), P00742, sequence (P00742 whole entry, looked up): as above

B1: FIXa K247N/N249S/T343R/R403E/E410N (protein)
chain 1: not shown
chain 2: not shown
kcat (s^-1), activation of FX by FIXa in the Xase complex (Factor X (FX), P00742): 8 s⁻¹ | % of WT kcat/KM (Factor X, P00742): 285% | kcat/KM (Factor X, P00742): 1.3e+08 M⁻¹ s⁻¹

B2: FIXa Y155F/R318Y/R338E/T343R (protein)
chain 1: not shown
chain 2: not shown
kcat (s^-1), activation of FX by FIXa in the Xase complex (Factor X (FX), P00742): 7.9 s⁻¹ | % of WT kcat/KM (Factor X, P00742): 771% | kcat/KM (Factor X, P00742): 3.6e+08 M⁻¹ s⁻¹

B3: FIXa Y155F/K247N/N249S/R338E/R403E (protein)
chain 1: not shown
chain 2: not shown
% of WT kcat/KM (Factor X, P00742): 299% | kcat/KM (Factor X, P00742): 1.4e+08 M⁻¹ s⁻¹

B4: FIXa Y155F/K247N/N249S/R338E/T343R (protein)
chain 1: not shown
chain 2: not shown
% of WT kcat/KM (Factor X, P00742): 1579% | kcat/KM (Factor X, P00742): 7.3e+08 M⁻¹ s⁻¹

B5: FIXa Y155F/K247N/N249S/R318Y/R338E/T343R/E410N (protein)
chain 1: not shown
chain 2: not shown
% of WT kcat/KM (Factor X, P00742): 1091% | kcat/KM (Factor X, P00742): 5e+08 M⁻¹ s⁻¹
